B1: HIS-tagged recombinant PSPC1 (natural protein, mouse, UniProt Q8R326-1 3-523, looked up)
chain: LRGNLKQVRIEKNPARLRALESAAGESEPVAAAAMALTLAGEQAPPPAPSEEHPDEELGFTIDIKSFLKPGEKTYTQRCRLFVGNLPTDITEEDFKRLFERYGEPSEVFINRDRGFGFIRLESRTLAEIAKAELDGTILKSRPLRIRFATHGAALTVKNLSPVVSNELLEQAFSQFGPVEKAVVVVDDRGRATGKGFVEFAAKPPARKALERCGDGAFLLTTTPRPVIVEPMEQFDDEDGLPEKLMQKTQQYHKEREQPPRFAQPGTFEFEYASRWKALDEMEKQQREQVDRNIREAKEKLEAEMEAARHEHQLMLMRQDLMRRQEELRRLEELRNQELQKRKQIQLRHEEEHRRREEEMIRHREQEELRRQQEGGFKPNYMENREQEMRMGDMGPRGAINMGDAFSPAPAGTQGPPPMMGMNMNNRGTIPGPPMGPGPAMGPEGAANMGTPMIPDNGAVHNDRFPQGPPSQMGSPMGNRTGSETPQAPMSGVGPVSGGPGGFGRGSQGGNFEGPNKRRRY
B2: GST-IMPα4 (natural protein, mouse, UniProt O35343 1-521, looked up)
chain: MADNEKLDNQRLKNFKNKGRDLETMRRQRNEVVVELRKNKRDEHLLKRRNVPQEDICEDSDIDGDYRVQNTSLEAIVQNASSDNQGIQLSAVQAARKLLSSDRNPPIDDLIKSGILPILVHCLERDDNPSLQFEAAWALTNIASGTSEQTQAVVQSNAVPLFLRLLHSPHQNVCEQAVWALGNIIGDGPQCRDYVISLGVVKPLLSFISPSIPITFLRNVTWVMVNLCRHKDPPPPMETIQEILPALCVLIHHTDVNILVDTVWALSYLTDAGNEQIQMVIDSGIVPHLVPLLSHQEVKVQTAALRAVGNIVTGTDEQTQVVLNCDALSHFPALLTHPKEKINKEAVWFLSNITAGNQQQVQAVIDANLVPMIIHLLDKGDFGTQKEAAWAISNLTISGRKDQVAYLIQQNVIPPFCNLLTVKDAQVVQVVLDGLSNILKMAEDQAETIANLIEECGGLEKIEQLQNHENEDIYKLAYEIIDQFFSSDDIDEDPSLVPESVQGGTFGFNSSTNVPTEGFQF

Experiments:
Assay in all cases: ELISA
[1] = target: GST-tagged full-length IMPα2 (mouse, UniProt P52293 1-529)
GST-IMPα6 = GST-IMPα6 (mouse, UniProt O35345 1-536)
[2] = target: IMPα2/GST-IMPβ1 heterodimer (tag-free IMPα2 predimerized with GST-IMPβ1) (mouse | , UniProt P52293 1-529; P70168 1-876)
IMPα2/GST-IMPβ1 heterodimer (tag-free IMPα2 predimerized with GST-IMPβ1), sequence (P70168 whole entry, one chain of several): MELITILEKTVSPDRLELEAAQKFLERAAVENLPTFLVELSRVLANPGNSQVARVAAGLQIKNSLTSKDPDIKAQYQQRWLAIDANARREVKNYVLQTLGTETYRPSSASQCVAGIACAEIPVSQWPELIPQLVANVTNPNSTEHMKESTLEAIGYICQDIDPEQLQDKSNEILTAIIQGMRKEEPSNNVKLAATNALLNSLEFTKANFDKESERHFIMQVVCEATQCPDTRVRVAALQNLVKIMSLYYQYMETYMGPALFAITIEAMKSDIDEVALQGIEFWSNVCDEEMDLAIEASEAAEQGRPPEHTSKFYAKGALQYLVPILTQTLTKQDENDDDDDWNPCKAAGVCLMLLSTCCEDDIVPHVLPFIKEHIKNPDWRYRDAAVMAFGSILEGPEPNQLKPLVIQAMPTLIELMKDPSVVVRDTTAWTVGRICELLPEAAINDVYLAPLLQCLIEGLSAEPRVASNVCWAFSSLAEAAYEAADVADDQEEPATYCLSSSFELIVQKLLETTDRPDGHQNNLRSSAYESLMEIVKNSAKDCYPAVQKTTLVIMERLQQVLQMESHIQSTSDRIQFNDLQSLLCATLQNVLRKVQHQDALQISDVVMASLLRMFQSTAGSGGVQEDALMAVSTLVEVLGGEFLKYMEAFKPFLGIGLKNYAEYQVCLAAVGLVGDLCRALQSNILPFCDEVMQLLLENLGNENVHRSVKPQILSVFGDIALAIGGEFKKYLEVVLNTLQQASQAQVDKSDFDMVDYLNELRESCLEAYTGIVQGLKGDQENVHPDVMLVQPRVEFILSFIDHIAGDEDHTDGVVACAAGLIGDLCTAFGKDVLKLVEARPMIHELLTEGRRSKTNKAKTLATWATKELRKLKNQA

[3] = target: IMPα6/GST-IMPβ1 heterodimer (tag-free IMPα6 predimerized with GST-IMPβ1) (mouse | , UniProt O35345 1-536; P70168 1-876)
IMPα6/GST-IMPβ1 heterodimer (tag-free IMPα6 predimerized with GST-IMPβ1), sequence (P70168 whole entry, chain 2 of 2): as the sequence (P70168 whole entry, one chain of several) above

[4] = target: IMPα4/GST-IMPβ1 heterodimer (tag-free IMPα4 predimerized with GST-IMPβ1) (mouse | , UniProt O35343 1-521; P70168 1-876)
IMPα4/GST-IMPβ1 heterodimer (tag-free IMPα4 predimerized with GST-IMPβ1), sequence (P70168 whole entry, one chain of several): as above

[5] = target: B1

| Binder | Kd [1] [nM] | Kd (GST-IMPα6) [nM] | Kd [2] [nM] | Kd [3] [nM] | Kd [4] [nM] | Kd [5] [nM] |
| --- | --- | --- | --- | --- | --- | --- |
| B1 | 15 | 5.9 | 1.9 | 2.1 | 21.3 |  |
| B2 |  |  |  |  |  | 57.9 |
